Assay results taken from publication PMC11641012.

What was measured:
Assay in all cases: EMSA
Settings in all cases: EMSA: 10 mM Tris-HCl, 10 mM NaCl, 40 mM KCl, 1 mM MgCl2, 4 mM EDTA, 1 mM DTT, 0.5 mg/ml BSA, 5% glycerol, 2 pmol DNA in 15 ul, room temperature 15 min (pH not …)
[1] = system: IntI1 (IntI1Y312F), MBP fusion
IntI1A = system: IntI1A
IntI1deltaC = system: IntI1deltaC

With “CATTGCGCATTGCGTAGATCTTTTATGTCTAACAATTCATTCAAGCCGACGCCGCTTCGCGGCGCGGCTTAATTCAAGCGTTAGACATTTTCCATGGCTATATTTCAGCATCATCACATCATCATCATCATCATCACAGGGTAGATCATCATCATCAACACGGGACGACAGCAAATGGCACCCTTCTATAAGCTTTTTATGTCTAACAATTCATTCAAGCCGACGCCGCTTCGCGGCGCGGCTTAATTCAAGCGTTAGACATTTTCTCGAGGGTATAGCATTCTAG / CCCTGTGATGATGATGATGATGATGTGATGATGCTGAAATATAGCCATGGACGCAGATCTACGCAATGCGCAATG / CTAGAATGCTATACCCTCGAGCGCAAGCTTATAGAAGGGTGCCATTTGCTGTCGTCCCGTGTTGATGATGATGATC [double-attCaadA7ts + staples]” the binding signal [1] was 7 % bound.

Sequence “CATTGCGCATTGCGTAGATCTTTTATGTCTAACGCTTGAATTAAGCCGCGCCGCGAAGCGGCGTCGGCTTGAATGAATTGTTAGACATTTTCCATGGCTATATTTCAGCATCATCACATCATCATCATCATCATCACAGGGTAGATCATCATCATCAACACGGGACGACAGCAAATGGCACCCTTCTATAAGCTTTTTATGTCTAACGCTTGAATTAAGCCGCGCCGCGAAGCGGCGTCGGCTTGAATGAATTGTTAGACATTTTCTCGAGGGTATAGCATTCTAG / CCCTGTGATGATGATGATGATGATGTGATGATGCTGAAATATAGCCATGGACGCAGATCTACGCAATGCGCAATG / CTAGAATGCTATACCCTCGAGCGCAAGCTTATAGAAGGGTGCCATTTGCTGTCGTCCCGTGTTGATGATGATGATC [double-attCaadA7bs + staples]” has a K half [1] of 153 nM, a K half (IntI1A) of 100 nM and a K half (IntI1deltaC) of 180 nM.

With “CATTGCGCATTGCGTAGATCTTTTGAGTAACCGTTTTGAGTCGAACCCAACGATCCGTTGGTGTTCGAGCTCATCTGTGTTACTCTTTCCATGGCTATATTTCAGCATCATCACATCATCATCATCATCATCACAGGGTAGATCATCATCATCAACACGGGACGACAGCAAATGGCACCCTTCTATAAGCTTTTTGAGTAACCGTTTTGAGTCGAACCCAACGATCCGTTGGTGTTCGAGCTCATCTGTGTTACTCTTTCTCGAGGGTATAGCATTCTAG / CCCTGTGATGATGATGATGATGATGTGATGATGCTGAAATATAGCCATGGACGCAGATCTACGCAATGCGCAATG / CTAGAATGCTATACCCTCGAGCGCAAGCTTATAGAAGGGTGCCATTTGCTGTCGTCCCGTGTTGATGATGATGATC [double-attCL2 + staples]” the K half [1] was 357 nM.

Work on “CATTGCGCATTGCGTAGATCTTTTGTTATAACGCCCGCCTAAGGGGCTGACAACGCACTACCACTAAACTCAAACACAACAACAGCAACCACCGCGGCTCAATGGGACTGGAAACGCCACGCGTTGACAGTCCCTCTTGAGGCGTTTGTTATAACTTTCCATGGCTATATTTCAGCATCATCACATCATCATCATCATCATCACAGGGTAGATCATCATCATCAACACGGGACGACAGCAAATGGCACCCTTCTATAAGCTTTTTGTTATAACGCCCGCCTAAGGGGCTGACAACGCACTACCACTAAACTCAAACACAACAACAGCAACCACCGCGGCTCAATGGGACTGGAAACGCCACGCGTTGACAGTCCCTCTTGAGGCGTTTGTTATAACTTTCTCGAGGGTATAGCATTCTAG / CCCTGTGATGATGATGATGATGATGTGATGATGCTGAAATATAGCCATGGACGCAGATCTACGCAATGCGCAATG / CTAGAATGCTATACCCTCGAGCGCAAGCTTATAGAAGGGTGCCATTTGCTGTCGTCCCGTGTTGATGATGATGATC [double-attCVCR2/1 + staples]” yielded a K half [1] of 353 nM.

For “CATTGCGCATTGCGTAGATCTTTTGTTATAACTTTCGCCTAAGGGGCTGACAACGCACTACCACTAAACTCAAACACAACAACAGCAACCACCGCGGCTCAATGGGACTGGAAACGCCACGCGTTGACAGTCCCTCTTGAGGCGGCCGTTATAACTTTCCATGGCTATATTTCAGCATCATCACATCATCATCATCATCATCACAGGGTAGATCATCATCATCAACACGGGACGACAGCAAATGGCACCCTTCTATAAGCTTTTTGTTATAACTTTCGCCTAAGGGGCTGACAACGCACTACCACTAAACTCAAACACAACAACAGCAACCACCGCGGCTCAATGGGACTGGAAACGCCACGCGTTGACAGTCCCTCTTGAGGCGGCCGTTATAACTTTCTCGAGGGTATAGCATTCTAG / CCCTGTGATGATGATGATGATGATGTGATGATGCTGAAATATAGCCATGGACGCAGATCTACGCAATGCGCAATG / CTAGAATGCTATACCCTCGAGCGCAAGCTTATAGAAGGGTGCCATTTGCTGTCGTCCCGTGTTGATGATGATGATC [double-attCVCRinv + staples]”, the K half [1] was 135 nM.
